Data on 1 molecule can be found in article PMC10024333 (Iranian Journal of Pharmaceutical Research : IJPR, 2022).

The target in the assay is T1, Trx-CD20 (thioredoxin-tagged CD20/G4S cassette: Trx, ECL1, (G4S)3 linker, ECL2, C-terminal His-tag) (Homo sapiens, UniProt P11836).
T1 chain: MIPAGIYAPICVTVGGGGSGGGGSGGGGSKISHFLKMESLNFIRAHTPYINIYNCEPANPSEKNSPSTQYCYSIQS
Briefly: ELISA. Background: ELISA stands for enzyme-linked immunosorbent assay.

B1: Zytux (rituximab, Aryogen Pharmed, Iran) (antibody, V domains shown)
VH: QVQLQQPGAELVKPGASVKMSCKASGYTFTSYNMHWVKQTPGRGLEWIGAIYPGNGDTSYNQKFKGKATLTADKSSSTAYMQLSSLTSEDSAVYYCARSTYYGGDWYFNVWGAGTTVTVSA
VL: QIVLSQSPAILSASPGEKVTMTCRASSSVSYIHWFQQKPGSSPKPWIYATSNLASGVPVRFSGSGSGTSYSLTISRVEAEDAATYYCQQWTSNPPTFGGGTKLEIK
B1 had a Ka of 2.66e+12 M⁻¹.
